From US20220119490A1 (Genentech, published 2022)
Where a chain is given by its changes, count along the chain named.

What was measured:
[1] = molecular target: T1, PTPRD extracellular domain (wild type) (human, UniProt P23468 21-1265); experiment: SPR, ILRAPL1 (IL1RAPL1) ECD-Fc immobilized, PTPRD ectodomain-Fc as analyte
T1 construct: extracellular domain; Ectodomain-Fc in SPR; also called wt PTPRD; PTPRD ectodomain fused to an Fc tag
T1 sequence (looked up): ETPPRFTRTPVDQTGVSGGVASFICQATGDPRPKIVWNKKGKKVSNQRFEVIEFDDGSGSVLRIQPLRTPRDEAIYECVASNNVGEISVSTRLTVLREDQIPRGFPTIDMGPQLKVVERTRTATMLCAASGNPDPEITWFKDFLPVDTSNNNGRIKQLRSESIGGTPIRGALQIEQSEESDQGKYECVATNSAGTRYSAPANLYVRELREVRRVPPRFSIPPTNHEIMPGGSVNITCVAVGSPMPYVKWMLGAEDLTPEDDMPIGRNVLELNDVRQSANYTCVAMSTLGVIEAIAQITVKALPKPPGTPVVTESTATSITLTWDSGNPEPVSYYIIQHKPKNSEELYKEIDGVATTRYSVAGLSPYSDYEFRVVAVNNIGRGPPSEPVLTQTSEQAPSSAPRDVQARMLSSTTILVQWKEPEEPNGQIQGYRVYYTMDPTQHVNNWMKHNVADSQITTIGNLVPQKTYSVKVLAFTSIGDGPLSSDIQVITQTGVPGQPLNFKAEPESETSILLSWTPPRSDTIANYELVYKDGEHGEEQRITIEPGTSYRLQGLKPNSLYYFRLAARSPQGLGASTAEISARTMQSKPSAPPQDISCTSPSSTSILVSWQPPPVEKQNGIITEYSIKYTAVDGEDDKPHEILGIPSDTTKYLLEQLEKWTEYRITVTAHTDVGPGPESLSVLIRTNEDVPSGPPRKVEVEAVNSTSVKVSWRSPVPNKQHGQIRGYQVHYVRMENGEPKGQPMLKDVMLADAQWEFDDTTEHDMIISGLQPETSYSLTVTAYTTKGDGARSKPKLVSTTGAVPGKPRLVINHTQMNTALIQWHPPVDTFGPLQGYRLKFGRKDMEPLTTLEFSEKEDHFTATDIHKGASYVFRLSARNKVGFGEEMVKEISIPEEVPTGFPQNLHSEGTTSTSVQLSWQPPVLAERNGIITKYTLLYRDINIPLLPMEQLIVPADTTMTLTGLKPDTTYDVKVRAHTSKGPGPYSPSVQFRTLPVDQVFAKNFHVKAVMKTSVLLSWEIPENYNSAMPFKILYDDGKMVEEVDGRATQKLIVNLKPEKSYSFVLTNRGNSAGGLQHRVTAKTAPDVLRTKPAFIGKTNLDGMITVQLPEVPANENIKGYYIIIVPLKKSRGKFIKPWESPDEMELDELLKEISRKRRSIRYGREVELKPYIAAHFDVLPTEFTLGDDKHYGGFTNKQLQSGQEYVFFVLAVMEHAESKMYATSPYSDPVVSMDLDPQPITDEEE
Protocol: (§1) The indicated protein (expressed as an ECD-Fc fusion protein) was immobilized on a sensor chip and PTPRD (expressed as an ectodomain fused to an Fc tag) was injected at the indicated concentrations.

[2] = molecular target: T1, PTPRD extracellular domain (wild type); experiment: SPR, SLITRK1 ECD-Fc immobilized, PTPRD ectodomain-Fc as analyte
Protocol: as §1

[3] = molecular target: T1, PTPRD extracellular domain (wild type); experiment: SPR, SLITRK4 ECD-Fc immobilized, PTPRD ectodomain-Fc as analyte
Protocol: as §1

[4] = molecular target: T1, PTPRD extracellular domain (wild type); experiment: SPR, LRFN4 ECD-Fc immobilized, PTPRD ectodomain-Fc as analyte
Protocol: as §1

[5] = molecular target: T2, PTPRD G203E K204E variant extracellular domain (human, UniProt P23468 21-1265); experiment: extracellular interaction screen: pentameric PTPRD variant ECD on ECD-Fc prey (FIG. 5L)
T2 construct: extracellular domain; also called G203E/K204E double mutant; IG2 mutant
T2 sequence (looked up): T1 sequence (looked up) with G183E, K184E

[6] = molecular target: T1, PTPRD extracellular domain (wild type); experiment: SPR, LRFN1 ECD-Fc immobilized, PTPRD ectodomain-Fc as analyte
Protocol: as §1

B1: IL1RAPL1 extracellular domain (receptor, human, UniProt Q9NZN1 19-357, looked up)
chain: LKVVTKRGSADGCTDWSIDIKKYQVLVGEPVRIKCALFYGYIRTNYSLAQSAGLSLMWYKSSGPGDFEEPIAFDGSRMSKEEDSIWFRPTLLQDSGLYACVIRNSTYCMKVSISLTVGENDTGLCYNSKMKYFEKAELSKSKEISCRDIEDFLLPTREPEILWYKECRTKTWRPSIVFKRDTLLIREVREDDIGNYTCELKYGGFVVRRTTELTVTAPLTDKPPKLLYPMESKLTIQETQLGDSANLTCRAFFGYSGDVSPLIYWMKGEKFIEDLDENRVWESDIRILKEHLGEQEVSISLIVDSVEEGDLGNYSCYVENGNGRRHASVLLHKRELMYT
notes: extracellular domain; ECD-Fc; also called ILRAPL1
Q: Does B1 bind [1]?
A: binds

B2: SLITRK1 extracellular domain (receptor, human, UniProt Q96PX8 18-622, looked up)
chain: NVTGDVCKEKICSCNEIEGDLHVDCEKKGFTSLQRFTAPTSQFYHLFLHGNSLTRLFPNEFANFYNAVSLHMENNGLHEIVPGAFLGLQLVKRLHINNNKIKSFRKQTFLGLDDLEYLQADFNLLRDIDPGAFQDLNKLEVLILNDNLISTLPANVFQYVPITHLDLRGNRLKTLPYEEVLEQIPGIAEILLEDNPWDCTCDLLSLKEWLENIPKNALIGRVVCEAPTRLQGKDLNETTEQDLCPLKNRVDSSLPAPPAQEETFAPGPLPTPFKTNGQEDHATPGSAPNGGTKIPGNWQIKIRPTAAIATGSSRNKPLANSLPCPGGCSCDHIPGSGLKMNCNNRNVSSLADLKPKLSNVQELFLRDNKIHSIRKSHFVDYKNLILLDLGNNNIATVENNTFKNLLDLRWLYMDSNYLDTLSREKFAGLQNLEYLNVEYNAIQLILPGTFNAMPKLRILILNNNLLRSLPVDVFAGVSLSKLSLHNNYFMYLPVAGVLDQLTSIIQIDLHGNPWECSCTIVPFKQWAERLGSEVLMSDLKCETPVNFFRKDFMLLSNDEICPQLYARISPTLTSHSKNSTGLAETGTHSNSYLDTSRVSISVLVP
notes: extracellular domain; ECD-Fc
Q: Does B2 bind [2]?
A: binds

B3: SLITRK4 extracellular domain (receptor, human, UniProt Q8IW52 19-618, looked up)
chain: DSDISVEICNVCSCVSVENVLYVNCEKVSVYRPNQLKPPWSNFYHLNFQNNFLNILYPNTFLNFSHAVSLHLGNNKLQNIEGGAFLGLSALKQLHLNNNELKILRADTFLGIENLEYLQADYNLIKYIERGAFNKLHKLKVLILNDNLISFLPDNIFRFASLTHLDIRGNRIQKLPYIGVLEHIGRVVELQLEDNPWNCSCDLLPLKAWLENMPYNIYIGEAICETPSDLYGRLLKETNKQELCPMGTGSDFDVRILPPSQLENGYTTPNGHTTQTSLHRLVTKPPKTTNPSKISGIVAGKALSNRNLSQIVSYQTRVPPLTPCPAPCFCKTHPSDLGLSVNCQEKNIQSMSELIPKPLNAKKLHVNGNSIKDVDVSDFTDFEGLDLLHLGSNQITVIKGDVFHNLTNLRRLYLNGNQIERLYPEIFSGLHNLQYLYLEYNLIKEISAGTFDSMPNLQLLYLNNNLLKSLPVYIFSGAPLARLNLRNNKFMYLPVSGVLDQLQSLTQIDLEGNPWDCTCDLVALKLWVEKLSDGIVVKELKCETPVQFANIELKSLKNEILCPKLLNKPSAPFTSPAPAITFTTPLGPIRSPPGGPVPLS
notes: extracellular domain; ECD-Fc
Q: Does B3 bind [3]?
A: binds

B4: LRFN4 extracellular domain (receptor, human, UniProt Q6PJG9 17-518, looked up)
chain: CPLPCVCQNLSESLSTLCAHRGLLFVPPNVDRRTVELRLADNFIQALGPPDFRNMTGLVDLTLSRNAITRIGARAFGDLESLRSLHLDGNRLVELGTGSLRGPVNLQHLILSGNQLGRIAPGAFDDFLESLEDLDLSYNNLRQVPWAGIGAMPALHTLNLDHNLIDALPPGAFAQLGQLSRLDLTSNRLATLAPDPLFSRGRDAEASPAPLVLSFSGNPLHCNCELLWLRRLARPDDLETCASPPGLAGRYFWAVPEGEFSCEPPLIARHTQRLWVLEGQRATLRCRALGDPAPTMHWVGPDDRLVGNSSRARAFPNGTLEIGVTGAGDAGGYTCIATNPAGEATARVELRVLALPHGGNSSAEGGRPGPSDIAASARTAAEGEGTLESEPAVQVTEVTATSGLVSWGPGRPADPVWMFQIQYNSSEDETLIYRIVPASSHHFLLKHLVPGADYDLCLLALSPAAGPSDLTATRLLGCAHFSTLPASPLCHALQAHVLGGTL
notes: extracellular domain; ECD-Fc; also called LFRN4
Q: Does B4 bind [4]?
A: binds

Q: Does B4 bind [5]?
A: no binding

B5: LRFN1 extracellular domain (receptor, human, UniProt Q9P244 32-536, looked up)
chain: QPCPGRCICQNVAPTLTMLCAKTGLLFVPPAIDRRVVELRLTDNFIAAVRRRDFANMTSLVHLTLSRNTIGQVAAGAFADLRALRALHLDSNRLAEVRGDQLRGLGNLRHLILGNNQIRRVESAAFDAFLSTVEDLDLSYNNLEALPWEAVGQMVNLNTLTLDHNLIDHIAEGTFVQLHKLVRLDMTSNRLHKLPPDGLFLRSQGTGPKPPTPLTVSFGGNPLHCNCELLWLRRLTREDDLETCATPEHLTDRYFWSIPEEEFLCEPPLITRQAGGRALVVEGQAVSLRCRAVGDPEPVVHWVAPDGRLLGNSSRTRVRGDGTLDVTITTLRDSGTFTCIASNAAGEATAPVEVCVVPLPLMAPPPAAPPPLTEPGSSDIATPGRPGANDSAAERRLVAAELTSNSVLIRWPAQRPVPGIRMYQVQYNSSVDDSLVYRMIPSTSQTFLVNDLAAGRAYDLCVLAVYDDGATALPATRVVGCVQFTTAGDPAPCRPLRAHFLGGTM
notes: extracellular domain; ECD-Fc; also called LFRN1
Q: Does B5 bind [6]?
A: binds
